# From patent US20230167458A1, “FORSKOLIN-INDUCIBLE PROMOTERS AND HYPOXIA-INDUCIBLE PROMOTERS” (ASKLEPIOS BIOPHARMACEUTICAL, INC., priority 2020, published 2023)
# B1: RTV-015: synthetic hypoxia-inducible promoter, SEQ ID NO: 81; 5 HRE1 elements spaced by 40 bp and minimal promoter MP1 (nucleic acid)
# DNA: ACGTGCGATGATGCGTAGCTAGTAGTGATGATGCGTAGCTAGTAGTACGTGCGATGATGCGTAGCTAGTAGTGATGATGCGTAGCTAGTAGTACGTGCGATGATGCGTAGCTAGTAGTGATGATGCGTAGCTAGTAGTACGTGCGATGATGCGTAGCTAGTAGTGATGATGCGTAGCTAGTAGTACGTGCTTGGTACCATCCGGGCCGGCCGCTTAAGCGACGCCTATAAAAAATAGGTTGCATGCTAGGCCTAGCGCTGCCAGTCCATCTTCGCTAGCCTGTGCTGCGTCAGTCCAGCGCTGCGCTGCGTAACGGCCGCC
# modifications: Synp-RTV-015
# notes: 5 HRE1 elements spaced by 40 bp and minimal promoter MP1
# B2: HV3C: synthetic hypoxia-inducible promoter, SEQ ID NO: 85/87; 4 HRE3 elements and CMV minimal promoter (nucleic acid)
# DNA: GATCTTTGTATTTAATTAAGACCTTGAGTACGTGCGTCTCTGCACGTATGGCGATTAAGACCTTGAGTACGTGCGTCTCTGCACGTATGGCGATTAAGACCTTGAGTACGTGCGTCTCTGCACGTATGGCGATTAAGACCTTGAGTACGTGCGTCTCTGCACGTATGGCGATTAATCCATATGCAGGTCTATATAAGCAGAGCTCGTTTAGTGAACCGTCAGATCGCCTAGATACGCCATCCACGCTGTTTTGACCTCCATAGAAGATCGCCACC
# modifications: Synp-HV3C
# notes: 4 HRE3 elements and CMV minimal promoter
# Test system: CHO-GSK1SV cell line
# Experiment: SEAP expression and cell number in normoxia vs 24 h hypoxia, stably transfected CHO-GS-KSV1
# Assay type: cell-based, chinese hamster
# Conditions: stably integrated CHO-GSK1SV
# Description: Cell suspensions of 6×10^5 cells per mL are incubated on an orbital shaker set at 8% CO2, 20% O2, 37° C., 85% relative humidity and 140 rpm overnight. 2.86×10^7 cells were centrifuged at 200 g for 3 minutes. Media is then aspirated and cell pellet resuspended in 2 mL fresh CD-CHO media to obtain a concentration of 1.43×10^7 cells per mL. 700 μL of cell suspension was added to each of two electroporation cuvettes each containing […] of linearised DNA in 100 μL of sterile TE buffer (Thermofisher, 12090015). Each cuvette was electroporated, delivering a single pulse of 300V, […] with resistance to infinity. Immediately after delivery of pulse electroplated cells were transferred to Erlenmeyer 125 mL flask containing 20 mL of CD-CHO media pre-warmed to 37° C. Electroporated cells from two cuvettes are combined into a single 125 mL flask to generate one pool of cells. Cells are cultured on an orbital shaker set at 8% CO2, 20% 02, 37° C., 85% relative humidity and 140 rpm. Cells are transferred to fresh CD-CHO media 24 hours after transfection and cell cultures monitored and given fresh CD-CHO media every 2-4 days. Usually after about 10-14 days cell numbers will be high enough to start passaging. Cells were selected at 14 days and then expanded. Induction was performed once doubling time had returned to approx. 24 hrs. The cells assayed in this example were at passage number 15, 17, 19 and 21.
# The transfected DNA was pXC-17.4 expression vector (Lonza Biologics plc) where one of the promoter constructs (RTV-015, HYBT, RTV-016, HV3C) or a control promoter (CMV-IE) have been cloned upstream of the SEAP gene, which had been cloned into the multiple cloning site within the vector expression cassette. Promoters were closed into the pXC-17.4 vector using Gibson assembly. The pXC-17.4 expression vector is designed for making stable cell lines in the CHO-GSK1SV cell line as it contains the […] gene which has been knocked out of the cell line. Therefore, selection of cells in glutamine drop-out medium will select for cells that have stably integrated the plasmid.
# Stably transfected CHO-GS cells were seeded at 500,000 cells/ml and allowed to grow for 24 hrs, at this point the cells were counted and placed under hypoxic conditions as previously described. After 24 hrs, the cell numbers and the expression of SEAP was measured.
# SEAP Reporter Gene Assay, chemiluminescent (Roche, CAT #11 779 842 001) was used to measured SEAP activity as per manufacturers protocol. All reagents and samples were fully pre-equilibrated at room temperature. Culture supernatant was collected from the stably transfected CHO-GS at the specific time points (0 h and 24 h). The supernatant was diluted 1:4 in dilution buffer and heat treated at 65° C. for 30 minutes. The heat-treated sample was then centrifuged for 30 s at maximum speed. 50 μl of the heat-treated sample was then added to 5 μl of inactivation buffer and incubated for 5 min at room temperature. 50 μl of substrate reagent was then added and incubated for 10 min at room temperature. The signal is then read at 477 nm and compared to a calibration curve. SEAP expression was normalized against cell number to ensure that the increase in activity was not due to increased cell numbers and was true induction. The result of this experiment can be seen in FIG. 16 and FIG. 17.
Molecule,SEAP activity in normoxia,inducibility after 24 hours in hypoxia (rank)
B1,almost no SEAP activity,lowest
B2,almost no SEAP activity,highest
